# Measured values taken from PMC6075865.
# Molecular target: preformed binary t-SNARE complex of Syx 1a (amino acids 1-262) and SNAP25 (amino acids 1-206), O35526
# Assay: SDS-resistant SNARE complex formation (SDS-PAGE without boiling, Coomassie staining); t-SNAREs preformed 1 hr (syntaxin 1 3 uM, SNAP25 15 uM), peptide (50 uM) or none added for 30 min, then GST-SybII (3 uM); 25 C; 100 mM NaCl, 1 mM DTT, 1 mM EDTA, 0.5% Triton X-100, 20 mM Tris pH 7.4; time …
# Conditions: other: SDS-resistant SNARE complex formation (SDS-PAGE without boiling, Coomassie staining)
# preformed binary t-SNARE complex of Syx 1a (amino acids 1-262) and SNAP25 (amino acids 1-206), O35526, sequence (O35526 whole entry, looked up, the tested form may be a part, one chain of several): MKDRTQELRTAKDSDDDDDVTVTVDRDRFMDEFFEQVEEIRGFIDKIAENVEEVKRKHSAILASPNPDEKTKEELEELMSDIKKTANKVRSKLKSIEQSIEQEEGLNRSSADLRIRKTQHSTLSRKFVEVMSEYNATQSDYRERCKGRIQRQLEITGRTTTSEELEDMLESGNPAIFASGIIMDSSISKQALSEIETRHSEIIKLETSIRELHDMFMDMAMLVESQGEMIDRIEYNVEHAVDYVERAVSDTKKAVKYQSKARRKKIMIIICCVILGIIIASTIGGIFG
Protein,"amount of assembled SNARE complexes (m10 with m11) after 240 min with 50 uM peptide, % of control","rate of SNARE complex assembly (m10 with m11) with 50 uM peptide, % of control"
"KVPYELGGQLPELKTSDPIEGEDEDELFMKEIAC [scrambled variant of the CpxII CTD peptide, in solution]",scr-peptide 88.8 ± 9.6,106.6 ± 16.7% of control
"IPAGCGDEEEEEEESILDTVLKYLPGPLQDMFKK [CpxII CTD peptide (amino acids 101-134), in solution]",CTD-peptide 92.3 ± 9.1,51.4 ± 3.8% of control
